According to patent US20200308277A1:

How the values were obtained:
huTIM-3/his (human) [1] = target: huTIM-3/his (human) (UniProt Q8TDQ0); test: SPR (Biacore) competition; 2nd antibody injection after 1st antibody huIgG1 (competitor)
huTIM-3/his (human) [2] = target: huTIM-3/his (human) (UniProt Q8TDQ0); test: SPR (Biacore) competition, hTIM-3/his captured by anti-His antibody; 1st antibody injection
huTIM-3/his (human) [3] = target: huTIM-3/his (human) (UniProt Q8TDQ0); test: SPR (Biacore) competition; 2nd antibody injection after 1st antibody ABTIM3-hum03 (competitor)
huTIM-3/his (human) [4] = target: huTIM-3/his (human) (UniProt Q8TDQ0); test: SPR (Biacore) competition; 2nd antibody injection after 1st antibody ABTIM3-hum11 (competitor)
huTIM-3/his (human) [5] = target: huTIM-3/his (human) (UniProt Q8TDQ0); test: SPR (Biacore) competition; 2nd antibody injection after 1st antibody ABTIM3-hum21 (competitor)

huTIM-3/his (human), sequence (Q8TDQ0 22-202 limits assumed): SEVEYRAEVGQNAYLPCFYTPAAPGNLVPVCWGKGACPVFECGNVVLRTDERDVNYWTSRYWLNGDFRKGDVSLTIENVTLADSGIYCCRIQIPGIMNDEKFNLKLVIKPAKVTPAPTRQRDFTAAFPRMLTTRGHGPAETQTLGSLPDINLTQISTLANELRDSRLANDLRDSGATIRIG

huIgG1 (antibody)
change in RU (huTIM-3/his (human) [1]): 3.6 RU | change in RU (huTIM-3/his (human) [2]): 0.27 RU | change in RU (huTIM-3/his (human) [3]): 4.5 RU | change in RU (huTIM-3/his (human) [4]): 3.8 RU | change in RU (huTIM-3/his (human) [5]): 4.5 RU
